Results published in patent US20190300618A1 (Merck Sharp & Dohme, published 2019).

T1: K17A
T1 construct: also called hCD27 K17A
T1 receptor: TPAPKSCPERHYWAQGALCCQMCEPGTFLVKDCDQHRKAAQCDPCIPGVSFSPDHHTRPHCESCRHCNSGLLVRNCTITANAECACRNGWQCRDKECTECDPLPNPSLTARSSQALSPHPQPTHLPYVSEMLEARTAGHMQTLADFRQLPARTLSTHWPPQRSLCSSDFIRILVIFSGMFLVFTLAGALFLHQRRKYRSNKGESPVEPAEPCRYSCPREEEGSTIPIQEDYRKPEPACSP

T2: K31A
T2 construct: also called hCD27 K31A
T2 receptor: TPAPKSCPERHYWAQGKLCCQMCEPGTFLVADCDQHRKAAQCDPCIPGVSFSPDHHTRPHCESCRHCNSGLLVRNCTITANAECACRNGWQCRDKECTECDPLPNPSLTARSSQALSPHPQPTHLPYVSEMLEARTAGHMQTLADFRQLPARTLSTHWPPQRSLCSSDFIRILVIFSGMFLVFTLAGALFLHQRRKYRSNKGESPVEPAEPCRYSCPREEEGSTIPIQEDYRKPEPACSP

T3: Q41A
T3 construct: also called hCD27 Q41A
T3 receptor: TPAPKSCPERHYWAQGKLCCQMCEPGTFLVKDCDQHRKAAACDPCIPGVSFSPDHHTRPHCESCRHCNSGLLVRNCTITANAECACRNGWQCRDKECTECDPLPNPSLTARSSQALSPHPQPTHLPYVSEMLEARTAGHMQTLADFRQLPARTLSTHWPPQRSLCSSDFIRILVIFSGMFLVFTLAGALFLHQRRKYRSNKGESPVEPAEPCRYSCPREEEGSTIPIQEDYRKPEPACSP

T4: F28A
T4 construct: also called hCD27 F28A
T4 receptor: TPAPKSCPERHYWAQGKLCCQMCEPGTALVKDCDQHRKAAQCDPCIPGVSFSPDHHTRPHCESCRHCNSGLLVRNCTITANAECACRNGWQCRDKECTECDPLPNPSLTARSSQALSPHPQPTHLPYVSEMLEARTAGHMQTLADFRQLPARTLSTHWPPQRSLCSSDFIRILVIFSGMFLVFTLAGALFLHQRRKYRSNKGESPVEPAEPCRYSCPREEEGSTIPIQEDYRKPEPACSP

T5: K38A
T5 construct: also called hCD27 K38A
T5 receptor: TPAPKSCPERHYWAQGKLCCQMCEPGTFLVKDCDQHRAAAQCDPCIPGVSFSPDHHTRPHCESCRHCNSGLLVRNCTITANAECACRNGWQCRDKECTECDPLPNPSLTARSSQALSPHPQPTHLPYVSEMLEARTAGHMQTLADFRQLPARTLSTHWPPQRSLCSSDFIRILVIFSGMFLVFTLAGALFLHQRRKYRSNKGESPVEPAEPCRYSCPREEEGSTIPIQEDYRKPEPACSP

T6: G16A
T6 construct: also called hCD27 G16A
T6 receptor: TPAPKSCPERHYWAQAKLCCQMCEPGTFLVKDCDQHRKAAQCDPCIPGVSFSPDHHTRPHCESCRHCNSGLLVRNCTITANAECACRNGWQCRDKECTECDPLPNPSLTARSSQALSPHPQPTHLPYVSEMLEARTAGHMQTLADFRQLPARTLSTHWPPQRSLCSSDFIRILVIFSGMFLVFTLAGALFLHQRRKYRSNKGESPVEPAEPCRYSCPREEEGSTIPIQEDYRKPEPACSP

T7: N88A
T7 construct: also called hCD27 N88A
T7 receptor: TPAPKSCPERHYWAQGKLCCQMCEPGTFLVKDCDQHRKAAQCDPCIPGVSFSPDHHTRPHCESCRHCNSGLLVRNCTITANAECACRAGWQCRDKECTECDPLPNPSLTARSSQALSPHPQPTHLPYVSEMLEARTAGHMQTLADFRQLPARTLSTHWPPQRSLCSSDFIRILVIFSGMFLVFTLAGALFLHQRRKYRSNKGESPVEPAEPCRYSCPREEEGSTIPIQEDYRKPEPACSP

T8: R93A
T8 construct: also called hCD27 R93A
T8 receptor: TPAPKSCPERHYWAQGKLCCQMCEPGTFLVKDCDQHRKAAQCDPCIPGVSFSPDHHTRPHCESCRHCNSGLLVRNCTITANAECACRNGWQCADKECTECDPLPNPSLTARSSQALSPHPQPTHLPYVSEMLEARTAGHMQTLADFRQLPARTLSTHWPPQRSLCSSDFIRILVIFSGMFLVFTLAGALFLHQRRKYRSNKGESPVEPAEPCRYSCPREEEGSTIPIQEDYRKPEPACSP

T9: Q15A
T9 construct: also called hCD27 Q15A
T9 receptor: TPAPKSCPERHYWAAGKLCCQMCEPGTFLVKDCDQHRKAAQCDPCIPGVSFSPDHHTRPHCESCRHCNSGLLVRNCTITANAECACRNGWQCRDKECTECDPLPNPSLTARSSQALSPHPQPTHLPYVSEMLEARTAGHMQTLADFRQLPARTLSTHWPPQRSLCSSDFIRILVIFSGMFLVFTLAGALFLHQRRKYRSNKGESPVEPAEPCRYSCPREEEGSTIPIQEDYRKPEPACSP

T10: P44A
T10 construct: also called hCD27 P44A
T10 receptor: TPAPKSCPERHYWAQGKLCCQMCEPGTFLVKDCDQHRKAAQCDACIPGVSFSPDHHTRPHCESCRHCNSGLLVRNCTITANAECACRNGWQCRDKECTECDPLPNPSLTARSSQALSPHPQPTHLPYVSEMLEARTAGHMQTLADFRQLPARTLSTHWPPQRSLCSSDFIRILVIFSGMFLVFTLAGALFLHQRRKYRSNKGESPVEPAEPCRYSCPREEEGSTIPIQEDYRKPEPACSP


Legend:
Assay in all cases: flow cytometry, CHO-K1; sub-column 1 of 2
K17A = target: T1, K17A
K31A = target: T2, K31A
Q41A = target: T3, Q41A
F28A = target: T4, F28A
K38A = target: T5, K38A
G16A = target: T6, G16A
N88A = target: T7, N88A
R93A = target: T8, R93A
Q15A = target: T9, Q15A
P44A = target: T10, P44A

% of WT hCD27 binding (geo mean FITC) (K17A)	% of WT hCD27 binding (geo mean FITC) (K31A)	% of WT hCD27 binding (geo mean FITC) (Q41A)	% of WT hCD27 binding (geo mean FITC) (F28A)	% of WT hCD27 binding (geo mean FITC) (K38A)	% of WT hCD27 binding (geo mean FITC) (G16A)	% of WT hCD27 binding (geo mean FITC) (N88A)	% of WT hCD27 binding (geo mean FITC) (R93A)	% of WT hCD27 binding (geo mean FITC) (Q15A)	% of WT hCD27 binding (geo mean FITC) (P44A)	Molecule
32.4%	194%	106%	113%	104%	90.8%	154%	120%	32%	146%	1A4 (mouse IgG1) (antibody)
98%	207%	113%	115%	44.7%	94.7%	153%	122%	107%	159%	9F4 (mouse IgG2a) (antibody)
103%	203%	108%	106%	48.2%	94.8%	162%	125%	99.6%	158%	Antibody hCD27.131A (mouse parental 131A) (antibody, V domains shown, mouse IgG1; also called mouse hCD27.131A) VH: QIQLVQSGPELKKPGETVKISCKASGYTFTNYGMNWVKQAPGKGLKWMGWINTNTGEPTYAEEFKGRFAFSLETSATTAYLQINNLKNEDTATYFCAREGDAMDYWGQGTSVTVSS VL: QIVLTQSPAIMSASPGEKVTMTCSASSSVSYMHWYQQKSGTSPKRWIYDTSKLASGVPARFSGSGSGTSYSLTISSMEAEDAATYYCQQWNSYPFTFGSGTKLEIK
